According to paper PMC10917059, “RhoU forms homo-oligomers to regulate cellular responses” (Journal of Cell Science, 2024):

Molecular target: the molecule itself
Assay: cross-linking; lysates of transfected COS7 cells in 20 mM HEPES pH 7.2, 1% Triton X-100, incubated with DSS (0.25 mM in the methods; increasing concentrations in the results) or DMSO for 30 min at 4°C; anti-Myc blot

B1: Myc–RhoU (natural protein)
chain: not shown
notes: vector a gift from Pontus Aspenström; also called pRK5-myc-RhoU; full-length RhoU; source: COS7, transfected, in lysate; not shown: Myc, N-terminal, kept
stoichiometry N: 2
